The target in the assay is T1, SARS-CoV-2 open reading frame 8 (ORF8) protein (SARS-CoV-2, UniProt P0DTC8 16-121).
T1 construct: domain: Ig-like domains; also called ORFS [sic]
T1 sequence (P0DTC8 16-121, tags left off): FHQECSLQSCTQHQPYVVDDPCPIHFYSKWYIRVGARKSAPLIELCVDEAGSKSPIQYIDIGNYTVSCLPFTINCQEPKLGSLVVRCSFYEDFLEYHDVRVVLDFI

B1: S24-1378 (antibody, V domains shown)
VH: EVQLVESGGGLVQPGGSLRLSCAASGFTVSSNYMSWVRQAPGKGLEWVSVIYSGGSTYYADSVKGRFTISRHNSKNTLYLQMNSLRAEDTAVYYCAREGYCTNGVCYRHAFDIWGQGTMVTVSS
VL: QTVVTQEPSFSVSPGGTVTLTCGLSSGSVSTSYYPSWYQQTPGQAPRTLIYSTNTRSSGVPDRFSGSILGNKAALTITGAQADDESDYYCVLYMGSGISVFGGGTKLTVL
With B1, the binding result is “binds”.
